Drawing on the RNAGym collection of RNA variant scans (doi:10.7554/elife.80360), this text covers self-cleavage for 167 variants.

The chains are these.
B1: CPEB3 Ribozyme (parent)
chain: GGGGGCCACAGCAGAAGCGUUCACGUCGCGGCCCCUGUCAGAUUCUGGUGAAUCUGCGAAUUCUGCUGU

The variants in the data set derive from B1. The data set can be described thus: self-cleavage, relative activity (ratio to wild type); higher = more cleavage; co-transcriptional.
Turning to C24A C35G, the self-cleavage is 0.173.
As for C24G C32G, the figure is 0.239.
As for C24G C32U, the figure is 0.435; as for C24A C66G, 0.493; as for C24A C66A, 0.397.
As for C24A C66U, the figure is 0.651.
C24A C39A: the self-cleavage was 0.349.
With C24A C39U the figure was 0.493; with C24A C39G, 0.682; with C24G C35U, 0.261.
As for C24G C35G, the figure is 0.116; as for A23G C66G, 0.594; as for A23G C66A, 0.597.
On to A23G C66U, for which the self-cleavage is 0.964.
As for C24G G31A, the figure is 0.185.
As for A23G U62A, the figure is 0.948; as for A23G U62G, 0.75; as for A23G U62C, 0.667.
With C24A C34A the figure was 0.262; with C24A C34G, 0.227.
Regarding A23G C34A, the self-cleavage worked out at 0.627.
As for A23G C34U, the figure is 0.932.
With A23U A59G the figure was 0.972; with C24A G50A, 0.719.
As for C24A G50C, the figure is 0.665; as for A23U C33G, 0.773.
Turning to A23U C33A, the self-cleavage worked out at 0.876.
With A23G C29G the figure was 0.211; with A23G C29A, 0.401; with A23G U26A, 0.773.
Consider C24A G41A, for which the self-cleavage was 0.391.
Consider C24A G41C, for which the self-cleavage worked out at 0.299.
As for C24A G41U, the figure is 0.456; as for C24G G30A, 0.308; as for C24G G30C, 0.128.
As for C24G G30U, the self-cleavage was determined as 0.173.
As for A23U A40G, the figure is 0.951; as for A23U A40C, 0.678.
With A23U A40U the figure was 0.924.
With A23G C39G the figure was 0.888.
Consider A23G C39A, for which the self-cleavage was found to be 0.785.
With C24A C45G the figure was 0.677; with C24A C45U, 0.751; with C24A C45A, 0.712.
With C24A A52G the figure was 0.772; with A23U U55C, 0.953.
With A23U G56A the figure was 1.01; with A23U G56U, 0.955; with A23U G56C, 0.936.
On to A23G G41C, for which the self-cleavage was 0.581.
Consider A23G G41U, for which the self-cleavage turned out to be 0.798.
On to A23G G41A, for which the self-cleavage came to 0.676.
As for C24G C57G, the figure is 0.13; as for C24G C57U, 0.241.
In the case of C24G C57A, the self-cleavage came to 0.172.
As for C24G C27G, the figure is 0.192; as for C24G C27A, 0.201.
On to C24G C27U, for which the self-cleavage amounted to 0.149.
As for C24G C39U, the figure is 0.217; as for C24G A59U, 0.225; as for C24G A59G, 0.518.
As for C24G A59C, the figure is 0.141; as for A23G U69C, 1.06; as for A23G U69G, 1.04.
As for A23G U69A, the figure is 0.974; as for C24A U61C, 0.374.
Turning to A23G G50C, the self-cleavage worked out at 1.01.
For the variant A23U C24A, the self-cleavage was determined as 0.888.
As for A23U G68C, the figure is 1.01; as for A23U G68A, 0.989; as for A23U G68U, 1.03.
With C24A U64A the figure was 0.492; with A23U G50C, 0.978; with A23U G50A, 1.01.
As for A23U G50U, the figure is 0.958.
On to C24A U69G, for which the self-cleavage was 0.866.
As for C24A U69A, the figure is 0.825.
As for A23U U44A, the figure is 0.963; as for A23U U44G, 0.882.
With A23U U44C the figure was 0.869; with A23G G47C, 0.944.
As for A23G G47U, the self-cleavage turned out to be 0.991.
With A23G G47A the figure was 0.996; with A23G G58C, 0.97; with A23G G31C, 0.237.
With A23U U69A the figure was 1.03; with A23U U69C, 1.07.
With C24A U26A the figure was 0.257.
Consider C24A U26G, for which the self-cleavage worked out at 0.283.
For the variant C24G C45U, the self-cleavage amounted to 0.464.
As for C24G C45A, the figure is 0.485; as for C24G C45G, 0.436.
Regarding A23U G65A, the self-cleavage turned out to be 0.885.
With A23U G65C the figure was 0.698.
As for A23G U61C, the figure is 0.614; as for A23G G68C, 0.971.
With A23G G68A the figure was 0.97.
Take A23G G68U: the self-cleavage amounted to 1.
With C24G C54A the figure was 0.267; with C24G C54G, 0.351.
With C24G C34A the figure was 0.271; with C24G C34G, 0.184; with C24G C34U, 0.57.
Turning to C24G C66G, the self-cleavage worked out at 0.28.
With C24G C66A the figure was 0.24; with C24A C27G, 0.105.
With C24A C27A the figure was 0.16; with C24A G56C, 0.31.
With C24A G56A the figure was 0.52.
Turning to C24A G56U, the self-cleavage stood at 0.576.
With C24A G25U the figure was 0.17.
C24A G25A: the self-cleavage is 0.13.
Regarding C24A G25C, the self-cleavage stood at 0.122.
In the case of C24A A40C, the self-cleavage is 0.31.
As for C24A A40G, the figure is 0.591.
With C24A A60C, the self-cleavage worked out at 0.283.
Take C24A A60G: the self-cleavage worked out at 0.35.
As for C24A A60U, the self-cleavage amounted to 0.252.
Regarding A23G C57G, the self-cleavage worked out at 0.332.
As for A23G C57U, the figure is 0.418; as for C24G A51C, 0.323; as for C24G A51G, 0.515.
With A23G G56C the figure was 0.751; with A23G G56U, 0.914.
Take C24A A59G: the self-cleavage was found to be 0.731.
As for C24A A59U, the figure is 0.267; as for A23G C45G, 0.971; as for A23G C45U, 0.991.
As for C24A G31C, the figure is 0.132; as for C24A G31U, 0.257.
As for C24A U38G, the figure is 0.196.
Take C24A U38A: the self-cleavage turned out to be 0.393.
As for C24A U38C, the figure is 0.517; as for A23U C45U, 0.975.
Take C24A G30A: the self-cleavage amounted to 0.217.
As for C24A G30U, the figure is 0.159.
As for C24G C33U, the figure is 0.38.
As for A23G U64A, the figure is 0.753; as for A23G U55G, 0.752; as for A23G U55C, 0.789.
A23G U55A: the self-cleavage came out at 0.879.
With A23G U49C the figure was 0.966; with A23G U49G, 1.03; with A23G U49A, 0.957.
As for C24A A42G, the figure is 0.53; as for C24A U49A, 0.815; as for C24A U44C, 0.628.
With C24A U44G, the self-cleavage is 0.615.
With C24A U44A the figure was 0.705; with A23U U61A, 0.918.
Regarding A23U U61G, the self-cleavage is 0.881.
With C24A U46A the figure was 0.793.
As for C24A U46C, the figure is 0.754.
As for C24A U46G, the figure is 0.816; as for A23U U64A, 0.943; as for A23U U64G, 0.917.
For the variant C24A G48U, the self-cleavage was found to be 0.737.
For C24A G48A, the self-cleavage stood at 0.758.
On to C24A G48C, for which the self-cleavage stood at 0.786.
As for C24G A52G, the figure is 0.527.
Take A23U C29A: the self-cleavage came out at 0.8.
As for A23U C29G, the figure is 0.569; as for A23U C29U, 0.437; as for A23G U53A, 0.916.
For A23G U53C, the self-cleavage was 0.8.
As for A23U G47U, the figure is 0.983.
As for A23U G47A, the figure is 1.02.
